The values that follow come from publication PMC7823470, “Arabidopsis Plant Natriuretic Peptide Is a Novel Interactor of Rubisco Activase” (Life, 2020).

One assay addresses T1, recombinant RCA (rRCA) (Arabidopsis thaliana, UniProt P10896).
T1 construct: made in house; host or cells: E. coli BL21 (DE3) One Shot
T1 sequence (P10896 whole entry, looked up): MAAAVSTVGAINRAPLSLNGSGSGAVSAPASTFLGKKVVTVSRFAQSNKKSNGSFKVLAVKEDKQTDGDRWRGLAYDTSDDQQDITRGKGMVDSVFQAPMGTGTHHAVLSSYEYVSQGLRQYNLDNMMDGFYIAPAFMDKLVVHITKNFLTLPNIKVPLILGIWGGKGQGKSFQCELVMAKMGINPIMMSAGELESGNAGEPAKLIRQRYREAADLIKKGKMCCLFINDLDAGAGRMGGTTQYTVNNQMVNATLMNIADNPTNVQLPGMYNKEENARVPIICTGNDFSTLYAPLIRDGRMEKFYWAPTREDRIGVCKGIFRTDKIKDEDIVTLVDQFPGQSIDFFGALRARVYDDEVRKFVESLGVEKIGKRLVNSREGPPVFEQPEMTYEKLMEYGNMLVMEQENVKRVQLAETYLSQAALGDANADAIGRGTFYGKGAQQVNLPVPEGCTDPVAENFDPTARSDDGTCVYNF
The experiment in a line: SPR, rAtPNP-A analyte over immobilized rRCA (CM5 chip). It counts as binding. As to conditions: for SPR binding to rRCA: rRCA amine-coupled on CM5 chip, rAtPNP-A as analyte, 20 °C, Biacore T100. As for the experimental part: SPR experiments were performed at 20 °C on a Biacore T100 instrument (GE Healthcare LifeSciences) with the use of Series S CM5 […] sensor chips as previously described. Data were acquired with Biacore T100 control software (version 2.0.2, GE Healthcare LifeSciences, Chicago, IL, USA). Kinetic analyses were performed at the flow of 100 μL min^−1 with pAtPNP-A (at 3.78 μM and consecutive two-fold dilutions; 11 injections included) […], whereas recombinant His-tagged RCA was used as […] immobilized on the active surface of the series S CM5 sensor chip with amine coupling kit. The surface was regenerated with glycine solution, pH 2.0 (GE Healthcare LifeSciences). The final sensorgram was generated with Scrubber (BioLogic Software Pty Ltd., Campbell, Australia).
Figure 2 AtPNP-A directly interacts with Arabidopsis RCA in vitro. (a) Molecular docking of AtPNP-A and RCA monomer. Surface model depicts predicted docking of AtPNP-A (blue), with its active region (cyan), and RCA (tan). The structure of AtPNP-A was predicted using the iterative threading assembly refinement (I-TASSER; version 5.1) method, while the 4W5W crystal structure of A. thaliana RCA [33] was derived from RCSB PDB. Protein—protein docking was performed using ClusPro). The models were analyzed and visualized using UCSF Chimera (version 1.10.2). (b) Recombinant protein preparations used in SPR analyses. (c) Exemplar sensorgrams depicting referenced binding response of the recombinant RCA and AtPNP-A proteins.

The test system of assay [1] is A. thaliana (Col-0) mesophyll cell protoplasts. The experiment in a line: Mesophyll cell protoplast (MCP) volume assay. In kind it is cell-based, Arabidopsis thaliana. As to conditions: MCPs in 0.4 M mannitol, 20 min; 100 nM peptide or 1 μg mL^−1 rAtPNP-A; confocal microscopy, n = 50. The source says:
Figure 1 Biologically active peptide containing the active region of AtPNP-A binds to RCA. (a) Schematics showing domain organization of AtPNP-A and the amino acid sequence of N-terminally biotinylated peptides used in the affinity-based experiments. pAtPNP-A—a peptide containing the active site of AtPNP-A; pScr—the corresponding scrambled peptide; SP—signal peptide. Cysteine residues forming a disulfide bond are underlined. (b) Assaying biological activity of the pAtPNP-A and purified recombinant AtPNP-A (rAtPNP-A). A. thaliana (Col-0) mesophyll cell protoplasts suspended in 0.4 M mannitol were treated with either water, or 100 nM pScr (negative control), or with 100 nM pAtPNP-A, or with 1 μg mL^−1 of rAtPNP-A protein for 20 min at room temperature. In each treatment, 50 randomly selected protoplasts with diameter >20 μm were included in quantitative analysis (scale bar = 20 μm). Protoplast volume was measured, and the data obtained from an exemplar experiment are plotted. […]
Biological activity of the synthetic peptides was verified in mesophyll cell protoplast (MCP) volume assay. […] Data are expressed as mean ± SD, and statistical analyses of one-way ANOVA followed by Tukey-Kramer multiple comparison test were performed using Prism 8.0 (GraphPad Software, San Diego, CA, USA).

For the next assay, the system named is plant leaves. On the set-up: method as in 2 sources, ref 13, 20 = [13]; PMID 21550130; doi:10.1016/j.jplph.2011.03.011; 13. Ruzvidzo O. Donaldson L. Valentine A. Gehring C. The Arabidopsis thaliana natriuretic peptide AtPNP-A is a systemic regulator of leaf dark respiration and signals via the phloem J. Plant Physiol. || [20]; PMID 19015524; doi:10.1073/pnas.0810107105; 20. Gottig N. Garavaglia B.S. Daurelio L. Valentine A.J. Gehring C. Orellano E.G. Ottado J. Xanthomonas axonopodis pv. citri uses a plant natriuretic peptide-like protein to modify host homeostasis Pr ||| ref 20 = [20]; PMID 19015524; doi:10.1073/pnas.0810107105; 20. Gottig N. Garavaglia B.S. Daurelio L. Valentine A.J. Gehring C. Orellano E.G. Ottado J. Xanthomonas axonopodis pv. citri uses a plant natriuretic peptide-like protein to modify host homeostasis Pr. As to conditions: cited from earlier work. From the text:
In the host–pathogens ‘arms race’, bacteria may acquire ‘eukaryotic-like’ genes from their hosts through horizontal gene transfer. […] Tobacco (Nicotiana tabacum) RCA gene is involved in resistance to herbivory, and its down-regulation impaired JA signaling and led to reduced defense against both generalist (Spodoptera littoralis) and specialist (Manduca sexta) herbivore elicitation ...

The next assay deals with Rubisco activase (RCA). The assay can be described thus: Affinity isolation with LC-MS/MS. In kind it is binding, Arabidopsis thaliana. As to conditions: pAtPNP-A bait vs pScr control. As for the experimental part:
Isolation of putative interactors of AtPNP-A was performed as described previously with minor modifications. For each sample, 5 g of plant material was used, no cross-linker was applied, the supernatant was incubated either with the N-terminally biotinylated pAtPNP-A or pScr (negative control) for 15 min. The protein extract mixture was incubated with Dynabeads M-280 (Life Technologies, Singapore) for 30 min. Eluted proteins were separated by SDS-PAGE (10% gels run for 15 min at 100V) and bands visualized with Coomassie Brilliant Blue (Figure S1). Bands were excised for trypsin in-gel digestion of proteins. MS analyses were performed on linear trap quadrupole (LTQ) Orbitrap Velos mass spectrometer (Thermo Scientific, Waltham, MA, USA) under conditions previously described. Scaffold version 4.11.1 (Proteome Software Inc.) was used to validate MS/MS based peptide and protein identification. […] Relative quantification of total spectrum counts of proteins identified with a confidence level of at least 99% at FDR < 0.1 in each sample containing pAtPNP-A or pScr (negative control) from three independent experiments was performed using Scaffold. […] The quantification file as well as the raw data are available via ProteomeXchange with identifier PXD023216, and the MS information is integrated in Supplementary Tables S1–S6.

A further assay relates to RCA. As to conditions: Yeast Two-Hybrid, AtPNP-A lacking the signal peptide; cited from earlier work.
The next assay concerns Pst DC3000. On the set-up: method as in PMID 32409317. As to conditions: exogenous application; cited from earlier work. From the text:
Tobacco (Nicotiana tabacum) RCA gene is involved in resistance to herbivory, and its down-regulation impaired JA signaling and led to reduced defense against both generalist (Spodoptera littoralis) and specialist (Manduca sexta) herbivore elicitation ...

B1: rAtPNP-A: purified N-terminally His-tagged AtPNP-A protein (protein)
chain: AQGKAVYYDPPYTRSACYGTQRETLVVGVKNNLWQNGRACGRRYRVRCIGATYNFDRACTGRTVDVKVVDFCREPCNGDLNLSRDAFRVIANTDAGNIRVVYTPI
modifications: left off: His6, N-terminal, kept
notes: purified N-terminally His-tagged AtPNP-A protein
Take B1: the “SPR binding to RCA (abstract, in words)” value in the assay with recombinant RCA (rRCA) (full-length recombinant AtPNP-A, SPR) is reported as “bind specifically to RCA”. Also, the “SPR binding to rRCA” value is recorded as “bound to the rRCA protein immobilized on the active surface” with recombinant RCA (rRCA) and “confirmed by us in vitro” with recombinant RCA (rRCA) (listed as recombinant AtPNP-A). Besides, the “Effect on protoplast volume” value in assay [1] is recorded as “protoplast volume increase”.

B2: AtPNP-A: Arabidopsis thaliana PNP, termed AtPNP-A (At2g18660; Q9ZV52) (protein)
chain: AQGKAVYYDPPYTRSACYGTQRETLVVGVKNNLWQNGRACGRRYRVRCIGATYNFDRACTGRTVDVKVVDFCREPCNGDLNLSRDAFRVIANTDAGNIRVVYTPI
modifications: left off: His6, N-terminal, kept
Take B2: the “Leaf photosynthetic rates and apparent photon yield” value with plant leaves is “modulate leaf photosynthetic rates and apparent photon yield”. Further, in the assay with plant leaves (treatment of plant leaves), the “Leaf dark respiration rates” value is reported as “triggers increase in leaf dark respiration rates”; the “Leaf photosynthetic rates and efficiency of light utilization” value was “regulates leaf photosynthetic rates and efficiency of light utilization during photosynthetic CO2 fixation”; the Leaf transpiration rates result is reported as “higher leaf transpiration rates”; the “Starch in guard cell chloroplasts” value is given as “induces starch reduction in guard cell chloroplasts”. Besides, the “Stomatal conductance and stomatal opening” value in the assay on plant leaves (treatment of plant leaves) was “increases stomatal conductance and stomatal opening”. The “Identification of RCA as interactor” value in the assay on Rubisco activase (RCA) is given as “identified with high confidence”. The “Interaction with RCA” value with RCA is given as “strong interactor”. Besides, the “Susceptibility to Pst DC3000” value with Pst DC3000 is “enhanced susceptibility to Pst DC3000”.
